From US20250313612A1 (Adimab, published 2025)

B1: ADI-14559 (antibody, V domains shown)
VH: EVQLLESGGGLVKPGGSLRLSCAASGFIFTNAWMSWVRQAPGKGLEWVGRIKRKTETGTTDYAPPVKGRFTISRDDSRSTLYLQMNSLKTEDTAVYYCTTGPPYQYYDSTGYSVVDYWGQGTLVTVSS
VL: SYELTQPPSASGTPGQRVTISCSGSSSNIGSNIGINYVYWYQQLPGTAPKLLIYSTNQRPSGVPDRFSGSQSGTSASLAISGLRSEDEADYYCAAWDDSLSGPVFGGGTKLTVL
notes: IgG; also called Antibody Number 119
B2: ADI-14546 (antibody, V domains shown)
VH: QVQLVQSGAEVKKPGSSVKVSCTASGGSFSTNSIAWLRQTPREGLEWMGGIIPVFGAAKYAQKFQGRVTISADASTTTAYLELHNLRSEDTAVYYCARGISPRTNSDWNHNYFYYYMDVWGKGTTVTVSS
VL: ETTLTQSPGTLSLSPGERATLSCRASQSIFTIYLAWYQQKPGQAPRLLIYSASNRATGIPDRFSGSGSGTDFTLTISSLEPEDFAVYYCHHYGTSPHTFGQGTRLEIK
notes: IgG
B3: ADI-14554 (antibody, V domains shown)
VH: QVQLVQSGGGLVKPGGSLRLSCAASGFAFSNAWMSWVRQAPGKGLEWLGRIKSETDGGTTDYAAPVKGRFSISRDDSRNTLYLQMNSLESEDTAVYYCTTGPPYKYFDSTGYSVVDYWGQGTLVTVSS
VL: SYELTQPPSASGTPGQRVTISCSGSSSNIGSNYVYWYQQLPGTAPRLLIYSTNQRPSGVPDRFSGSQSGTSASLAISGLRSDDEADYYCAAWDDRMSGPVFGGGTKLTVL
notes: IgG
B4: ADI-14547 (antibody, V domains shown)
VH: EVQLLESGPVLVKPTETLTLTCTVSGFSLANPDVAVAWIRQPPGKALEWLAHIFSGDETSYTTSLQNRLTISKDTSKSQVVLIMTKMDPRDTGTYFCARVLTTWHGPDYWGQGTTVTVSS
VL: ETTLTQSPLSLPVTLGQPASISCRSDQSLVYHNGNTYVSWFHQRPGQSPRRLIYKVSIRDSGVPDRFSGSGSGTDFALKISRVEAEDLGVYYCMQGSHWPHTFGQGTKVDIK
notes: IgG; also called Antibody Number 107
B5: ADI-14549 (antibody, V domains shown)
VH: EVQLVESGPALVKPTQTLTLTCTFSGFSLSSRRMCVSWIRQPPGKALEWLARIDWDDDKSYSTSLKTRLTIAKDTSKNQVVLTMTNMGPADTATYYCARTPIYDSSGYYLYYFDSWGQGTLVTVSS
VL: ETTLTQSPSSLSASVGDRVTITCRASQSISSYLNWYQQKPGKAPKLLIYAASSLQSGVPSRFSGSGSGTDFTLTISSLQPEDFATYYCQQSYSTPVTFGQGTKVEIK
notes: IgG
B6: ADI-14561 (antibody, V domains shown)
VH: QVQLVQSGAEVKKPGSSVRVTCKASGGTVSDYAITWVRQAPGQGLEWMGGFIPMFGVAKDAEKFQGRVTLTGDKSTNAVYMELSSLTSEDTAVYYCARSKRLPAGLSTSDYYYYYLDVWGKGTTVTVSS
VL: EIVLTQSPGTLSLSPGEGATLSCTASQNVFRTHVAWYQQTPGQAPRLLIYGGSTRATGIPDRFSGSGSGTDFTLIISRLEPEDFAVYYCHHFGTTPWTFGQGTKVEIK
notes: IgG
B7: ADI-14560 (antibody, V domains shown)
VH: QVQLVQSGPELKKPGESLKISCKASGYSFTSFWIAWVRQMPGKGLEFLGIIYPGDADTRYSPSFQGQVTISADKSINTAYLQWNNLKASDTAMYYCARQTTMTPDAFDLWGQGTTVTVSS
VL: EIVLTQSPATLSLSPGERATISCRASQSVSSYLAWYQQKPGQAPRLLIYEASDRATGTPARFSGSGSGTDFTLTISSLEPEDFAVYYCQQRSNWGVGTFGQGTKVEIK
notes: IgG; also called Antibody Number 120
B8: ADI-14553 (antibody, V domains shown)
VH: QVQLVQSGTEVKKPGSSVNVSCKAVGGKFTSYNINWVRQAPGQGLEWMGRIIPTLGITYFAQKFQGRLTINADRSTSTAYMDLSSLRSDDTAVYYCARSNPVARDFWSGYSDDSSYAMDVWGQGTTVTVSS
VL: ETTLTQSPGTLSLSPGDRVSLSCRASQTVDKNYVAWYQQKPGQAPRLLIYGASKRAADIPDRFSGSGSGADFTLTISRLEPEDFAVYHCQQYGASAFSFGGGTKLEIK
notes: IgG
B9: ADI-14552 (antibody, V domains shown)
VH: EVQLLESGPELKKPGSSVKVSCKASADTFNGHSIAWVRQAPGQGLEWVGGFIPIFGKAYYAQNFQGTVTISADSSTRTVYMDLFNLRSEDTAVYYCARSRKNVIGDTSAWEHMYFYMDVWGTGTTVTVSS
VL: EIVLTQSPGTLSLSPGERVTLSCRASESINKNTYLAWYQQKPGQAPRLLIYGASSRATGIPDRFSGSGSGTDFTLTISRLEPEDSAVYYCQQYGRSMTFGGGTKVEIK
notes: IgG
B10: ADI-14441 (antibody, V domains shown)
VH: QVQLVQSGAEVKKPGSSVKISCKASGGTFNSQAIHWVRQAPGQDLEWMGNIIPGFGSPNSAQNFQGRVTFIADDSTGAAYMDLSSLKSEDTAVYYCATAGWFGESVHLDSWGQGTLVTVSS
VL: not shown
B11: ADI-14501 (antibody, V domains shown)
VH: QVQLVQSGAEVKKPGSSVKISCKASGGTFKSQAIHWVRQAPGQGLEWMGNIIPTYGSPNFAQRFLGRVTFIADDSTGAASMDLYRLTSEDTAVYYCATAGWFGELVRFDSWGQGTLVTVSS
VL: DIVMTQSPATLSVSPGERATLSCRATESISSNLAWYQQKPGQAPRLLIYGASTRATGIPARFSGSGSGTEFTLTINSLQSEDFAVYYCQQYNNWPPLTFGGGTKVDIK
B12: ADI-14448 (antibody, V domains shown)
VH: EVQLVESGGGLVKPGGSLRLSCAASGSSFRYSYMSWVRQAPGKGLQWVASISPSSTYTDYADSVKGRSTISRDHDKISLQVNSLRGDDTAVYYCVRHMNLVMGPFAFDIWGRGTMVTVSS
VL: QSVVTQPPSLSGAPGQRITISCTGSSSNIGAGYDVNWYQQLPGTAPKLLIYAKTNRPSGVPERFSGSESGTSASLAITGLQPEDEADYYCQSYDRIGMYVFGTGTKLTVL

These binders were tested against T1, RSV F protein of subtype A (strain A2) on recombinant mKate-RSV (Respiratory syncytial virus subtype A …, UniProt P03420 26-574) (assay: cell-based or functional assay).

Binder	Neut IC50 (µg/ml) subtype A [µg/mL]
B1	0.057
B2	> 10
B3	0.736
B4	0.198
B5	> 10
B6	> 10
B7	> 10
B8	> 10
B9	> 10

The binders below were run against RSV F protein of subtype B (18537) on recombinant mKate-RSV (Respiratory syncytial virus subtype B …, UniProt P13843 26-574) (assay: cell-based or functional assay).

Binder	Neut IC50 (µg/ml) subtype B [µg/mL]
B1	0.031
B2	> 10
B3	0.787
B4	0.252
B5	> 10
B6	> 10
B7	> 10
B8	> 10
B9	> 10

Target: T1, RSV F protein of subtype A (strain A2) …
Assay: cell-based or functional assay
Remark: another data set of the same source

Binder	RSV-A2 IC50 [µg/mL]
B10	> 25
B11	12.4
B12	0.04

The binders below were run against human metapneumovirus (HMPV) F protein on GFP-expressing hMPV (NL/1/00, A1 sublineage) (human metapneumovirus) (assay: cell-based or functional assay).

Binder	HMPV-A1 IC50 [µg/mL]
B10	37.8
B11	31.4
B12	0.05

Each binder was assayed against T2, RSV F ectodomain stabilized in the postfusion conformation (F ΔFP), subtype A (Respiratory syncytial virus subtype A, UniProt P03420 26-109; P03420 147-524) (assay: BLI, IgG on AHQ sensors, 100 nM antigen).
T2 construct: extracellular domain; trimer; also called Postfusion subtype A; Postfusion RSV F

Binder	Kd [nM]
B1	0.204
B2	0.589
B3	0.388
B4	0.169
B5	0.326
B6	3.09
B7	0.874
B8	67.1
B9	1.27

Each binder was assayed against T3, RSV F ectodomain stabilized in the postfusion conformation (F ΔFP), subtype B (Respiratory syncytial virus subtype B, UniProt P13843 26-109; P13843 147-524) (assay: BLI, IgG on AHQ sensors, 100 nM antigen).
T3 construct: extracellular domain; trimer; also called Postfusion subtype B

Binder	Kd [nM]
B1	0.129
B2	0.472
B3	0.197
B4	0.269
B5	2.49
B6	2.28
B7	0.329
B8	117
B9	1.11
